# Assay results: PMC8347620, “Arabidopsis G-Protein β Subunit AGB1 Negatively Regulates DNA Binding of MYB62, a Suppressor in the Gibberellin Pathway”
# T1: MBP-MYB62 (Arabidopsis thaliana, UniProt Q9C9G7 1-286)
# T1 sequence: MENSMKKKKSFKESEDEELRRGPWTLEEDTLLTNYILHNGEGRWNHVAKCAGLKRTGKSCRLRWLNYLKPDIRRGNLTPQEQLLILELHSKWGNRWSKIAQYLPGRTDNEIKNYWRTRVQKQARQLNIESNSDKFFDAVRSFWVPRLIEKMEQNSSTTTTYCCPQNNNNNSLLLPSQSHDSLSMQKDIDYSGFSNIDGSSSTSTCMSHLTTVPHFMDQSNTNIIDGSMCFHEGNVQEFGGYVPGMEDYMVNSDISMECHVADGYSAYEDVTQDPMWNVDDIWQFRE
# Biological target: T1, MBP-MYB62
# Assay: EMSA; EMSA: 2.5% glycerol, 50 mM KCl, 5 mM MgCl2, 10 mM EDTA, 30 min, room temperature; pH not stated
# Settings: protein: recombinant; tags: MBP (pMAL-c2x); label: biotin on both strands (BIO printed before each oligo); blunt
binder,measurement,value
ProGA2ox7 probe (MYB element) (dsDNA) DNA 1: AAGCCCTTGGTTGGGGATGG DNA 2: CCATCCCCAACCAAGGGCTT,binding result,binds
